No end group written: not given here.

In this assay the target is T1, N-terminal cytosolic domain of Sec62 (Sec62 domain; residues 18-145) (S. cerevisiae, UniProt P21825 18-145).
T1 sequence (looked up): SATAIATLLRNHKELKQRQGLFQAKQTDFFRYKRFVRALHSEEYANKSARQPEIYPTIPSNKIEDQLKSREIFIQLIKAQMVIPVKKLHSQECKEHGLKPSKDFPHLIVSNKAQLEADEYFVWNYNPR
Put plainly: pull-down.

As for VYSEEDDEYSTDDDETESDDESDASDY (peptide, UniProt P14906 621-647, looked up, also: biotin label, position not given here) [Sec63-C1 peptide (residues 621-647 of Sec63), biotin-labeled], the binding result was “binds”.

The record behind these values is article PMC7849165 (The EMBO Journal, 2020).
